Reference: PMC8787476

Biological target: PERV TM_(493–587) (tag intact) (porcine endogenous retrovirus A (PERV-A))
Test: SEC; Superdex 75 10/300 GL in 10 mM Tris-HCl, pH 7.5, 150 mM NaCl; calibrated with protein standards (Kav curve); apparent MW ~43 kDa against theoretical trimeric MW 39.9 kDa

PERV TM_(493–587) (tag intact) (domain or fragment)
stoichiometry N: 3
